Laboratory results: patent US5807729A, “Metalloprotease having increased activity” (Novo Nordisk A/S, priority 1995, dated 1998)

Tests used:
FTC-labeled casein = experiment: Thermal stability profile, FTC-casein hydrolysis; assay type: biochemical; conditions: 15 minutes at various temperatures, Universal buffer pH 7; FIG. 9
Procedure: Purified p45 metalloprotease or B.t. thermolysin (Boehringer Mannheim) (50 microliters, 0.1 mg/ml) are incubated at various temperatures for 15-minutes in Universal buffer, pH 7. Ten microliters of sample are then added to 30 microliters of Universal pH buffer (pH 7) and 20 microliters of FTC-labeled casein and are incubated at 37° C. for 1 hour. 150 microliters of 5% TCA is added to acidify and precipitate casein (1 hour at room temperature). […] Samples are then analyzed on the fluorimeter (slit width=2.5 nm; excitation freq.=490 nm; emission freq.=525 nm; integration time=2 sec).

[1] = system: Ac-Pro-Leu-Gly[2-mercapto-4-methyl-pentanoyl]-Leu-Gly-OEt; experiment: Hydrolysis of the thermolytic merc-peptide substrate (Ellman's reagent, 405 nm); assay type: biochemical
Procedure: The thermolytic substrate Ac-Pro-Leu-Gly[2-mercapto-4-methyl-pentanoyl]-Leu-Gly-OEt (i.e. the merc-peptide) is also used to further characterize the p45 metalloprotease and B.t. thermolysin.
Reaction mixtures contain 100 microliters of Ac-Pro-Leu-Gly[2-mercapto-4-methyl-pentanoyl]-Leu-Gly-OEt (1 mM, and 1 mM Ellman's reagent) and 100 microliters of either B.t. thermolysin or purified p45 metalloprotease (0-3 ug/ml) in sample buffer.

B1: p45 Metalloprotease: metalloprotease purified from Fusarium oxysporum DSM 2672 broth, 45 kDa band; also produced recombinantly in A. oryzae (protein)
chain: MRFSDSLLLIGLSSLAGAHPSRRAPNPSPLSKRGLDLEAFKLPPMAEYVPQDEVPDDVSAKVVTKRADYTETAKDLVKSTFPKATFRMVTDHYVGSNGIAHVNFKQTVNGIDIDNADFNVNIGADGEVFSYGNSFYEGKIPGPLTKRDEKDPVDALKDTVDVLSLPVEADKAKAEKKSKNHYTFTGTKGTVSKPEAKLTYLVDENKELKLTWRVETDIVDNWLLTYVNAAKTDEVVGVVDYVNEATYKVYPWGVNDPSKGSRSTVENPWNLAASEFTWLSDGSNNYTTTRGNNGIAQVNPSGGSTYLNNYRPDSPSLKFEYDYSTSTTTPTTYRDASIAQLFYTANKYHDLLYLLGFTEQAGNFQTNNNGQGGVGNDMVILNAQDGSGTNNANFATPADGQPGRMRMYLWTYSTPQRDCSFDAGVVIHEYTHGLSNRLTGGPANSGCLPGGESGGMGEGWGDFMATAIHIQSKDTRASNKVMGDWVYNNAAGIRAYPYSTSLTTNPYTYKSVNSLSGVHAIGTYWATVLYEVMWNLIDKHGKNDADEPKFNNGVPTDGKYLAMKLVVDGMSLQPCNPNMVQARDAIIDADTALTKGANKCEIWKGFAKRGLGTGAKYSASSRTESFALPSGC
With B1 the “optimum temperature for hydrolysis of FTC-casein” value (FTC-labeled casein) was 50 °C, the “Specific Activity, substrate merc-peptide” value [1] was 57 AU/min*mg and the “effectiveness at hydrolyzing the mercapto-peptide relative to B.s. thermolysin” value [1] was “about 25 fold”.
